Measured values taken from paper PMC7746861, “Acetate Metabolism in Archaea: Characterization of an Acetate Transporter and of Enzymes Involved in Acetate Activation and Gluconeogenesis in Haloferax volcanii” (Frontiers in Microbiology, 2020).
Read-outs that look alike come from different tables or passages of the source. Each block holds one molecule with its values, some of them ahead of it.

What was measured:
[1] = biological target: Malic enzyme Mae1 from Haloferax volcanii, recombinant (Haloferax volcanii); experiment: SEC; Superdex 200 HiLoad column (1.6 x 60 cm), flow rate 1 ml per min, calibrated with HMW and LMW kits (GE Healthcare); native mass compared with the subunit mass by SDS-PAGE; 50 mM Tris-HCl, pH 7.5, 1.5 M KCl
purified protein [2] = substrate: NC(=O)c1ccc[n+]([C@@H]2O[C@H](COP(=O)(O)OP(=O)(O)OC[C@H]3O[C@@H](n4cnc5c(N)ncnc54)[C@H](O)[C@@H]3O)[C@@H](O)[C@H]2O)c1; experiment: purified protein; assay type: biochemical, Haloferax volcanii; details: 10 mM malate, MnCl2, […] KCl, pH 7.0, 42°C, varied: cofactor
purified protein [3] = substrate: NC(=O)c1ccc[n+]([C@@H]2O[C@H](COP(=O)(O)OP(=O)(O)OC[C@H]3O[C@@H](n4cnc5c(N)ncnc54)[C@H](OP(=O)(O)O)[C@@H]3O)[C@@H](O)[C@H]2O)c1; experiment: purified protein; assay type: biochemical, Haloferax volcanii; details: varied: cofactor
purified protein [4] = substrate: CC(=O)O; experiment: purified protein; details: acetate activation, ATP, CoA
purified protein [5] = substrate: CC(C)(COP(=O)(O)OP(=O)(O)OC[C@H]1O[C@@H](n2cnc3c(N)ncnc32)[C@H](O)[C@@H]1OP(=O)(O)O)[C@@H](O)C(=O)NCCC(=O)NCCS; experiment: purified protein; assay type: biochemical, Haloferax volcanii; details: acetate activation, ATP, CoA
purified protein [6] = substrate: Nc1ncnc2c1ncn2[C@@H]1O[C@H](COP(=O)(O)OP(=O)(O)OP(=O)(O)O)[C@@H](O)[C@H]1O; experiment: purified protein; assay type: biochemical, Haloferax volcanii; details: acetate activation, ATP, CoA
[7] = biological target: the molecule itself; experiment: SEC; Superdex 200 HiLoad column (1.6 x 60 cm), flow rate 1 ml per min, calibrated with HMW and LMW kits (GE Healthcare); native mass compared with the subunit mass by SDS-PAGE; 50 mM Tris-HCl, pH 7.5, 1.5 M KCl
[8] = biological target: the molecule itself; experiment: as above; remark: listed apart in the source
purified protein [9] = substrate: O=C(O)C[C@H](O)C(=O)O; experiment: purified protein; details: NADP+, MnCl2, 4 M KCl, pH 5.75, 42°C, pH 5.75
purified protein [10] = substrate: NC(=O)C1=CN([C@@H]2O[C@H](COP(=O)(O)OP(=O)(O)OC[C@H]3O[C@@H](n4cnc5c(N)ncnc54)[C@H](OP(=O)(O)O)[C@@H]3O)[C@@H](O)[C@H]2O)C=CC1; experiment: purified protein; assay type: biochemical, Haloferax volcanii; details: reverse reaction, pyruvate, NaHCO3, MnCl2, 4 M KCl, pH 5.75, 42°C, varied: cofactor
purified protein [11] = substrate: CC(=O)SCCNC(=O)CCNC(=O)[C@H](O)C(C)(C)COP(=O)(O)OP(=O)(O)OC[C@H]1O[C@@H](n2cnc3c(N)ncnc32)[C@H](O)[C@@H]1OP(=O)(O)O; experiment: purified protein; assay type: biochemical, Haloferax volcanii; details: acetate formation (reverse), AMP, PPi, MgCl2, 2 M KCl, pH 7.0, 42°C
[12] = recombinant, MgCl2, 2 M KCl, pH 7.5, 42°C, pH 7.5
[13] = recombinant, MgCl2, 2 M KCl, pH 7.5, 42°C
[14] = MgCl2, 1 M KCl, pH 7.0, 42°C, pH 7.0

stoichiometry N [1]: 8
Molecule: Malic enzyme Mae1 from Haloferax volcanii, recombinant

B1: Mae2 (Haloferax volcanii DS2) (protein)
chain: MTLGDDARDYHRRPPAGKVEIATTKPTNTQRDLSLAYSPGVAAPCRDIAEDENAAYEYTAKGNLVGVVSNGSAVLGLGDIGAQASKPVMEGKGVLFKRFADIDVFDVEFDHDDPQAFVESVAAMEPTFGGINLEDIRAPECFEIEESLRERMDIPVFHDDQHGTAIISGAALLNAADIADKELSSLNVTFSGAGAAATATARFYVSLGIPHENITLCDIDGVLSESRAEAGELDEYAEPFARGVDDGDLEDAMEGADVLVGLSVGGIVSQETVRSMADDPIIFAMANPEPEIAYEDAKEARDDTVIMATGRSDYPNQVNNVLGFPFIFRGALDVRATEINEEMKRAAAEALANLARQDVPDAVVKAYGDGPLQFGPDYLIPKPLDQRVLYEVTPAVAEAAMKSGAARRERDLDDYREELEARLGKSREMMRVVLNKAASNPKRVVLAEGEDEKMIRAASQLVEEGIAEPILVGRTKEILRTAEDLGLDFDPTIADPESGEWNHYVDHLYERRQRKGLTRTEAAELVRGDSNYFASVMVEVGDADAMLTGLTHHYPSALRPPLQIIGTADDADYAAGVYMLTFRNRVIFCADATVNLDPDENVLAEVTKHTAELARRFNVEPRAALLSYSDFGSVTNEGTRKPRNAVEQLHADPDVDFPVDGEMQADTALVEEMLTDTYDFAELDDPANVLVFPNLEAGNIGYKLLQRLGGAEAIGPMLVGMDKPVHVLQRGDEVKDIVNLAGVAVVDAQSE
notes: full length with C-terminal PTA domain, Ni-NTA purified, homologous expression in H. volcanii; 530 kDa, subunit 81 kDa
Km (purified protein [2]): 150 µM
Km (purified protein [3]; 10 mM malate, MnCl2, […] KCl, pH 7.0, 42°C): 100 µM

B2: ACS2 (Haloferax volcanii DS2) (protein)
chain: MKKPLLVTEFLDRARRYYGDEEAVVATTGERFTYDELGERADGFSAALQSRGVEKGDRVAVLDPNTHYHLEAAYGSMQLGAVHMPLNYRLVPADFEYVLNDADVTAVYADYAFAEKIDAVRDEIPAEIFVTNDPEKAAESTDGEWLDFDELVAESTDYERPEMDEDDIITINYTSGTTGDPKGVCRTHRAETIHAYLISMHQDIGDDDVYLWTLPMFHVNGWGHIYAITGHGAKHVCTRGVEAEAVLDAIRDEDVSYLCAAPTVLNILMKHYREEGGVETTGASPVRAATAGAAPPEATIRTVEDEFGWRLMHVYGATETGPLITTSEAGRYLTDGDDRFGVKKKQGIGYLGTDVRVVDEDGTDVPRDEQSVGEIVVTGNQVMEKYWNKPEETEEAFSARLEGYYHMGDLAVVDENGFISIQDRKKDIIISGGENISSIELEDTLFDHDEVADVAVIPVPSDEWGESPKAFVVPTSGDPDAPGVTAEALIAFCRERIATYKVPKEVEFVTELPKTATGKVQKYELREREWEDEGRMMGEG
notes: full length, Ni-NTA purified (pTA963), homologous expression in H. volcanii
Km (purified protein [4]; [12]): 1500 µM
Vmax (purified protein [4]; [12]): 1.5 µmol/min/mg
Km (purified protein [5]; [13]): 2210 µM
Km (purified protein [6]; [13]): 430 µM

B3: AMP-forming acetyl-CoA synthetase ACS2 from Haloferax volcanii, recombinant (enzyme, UniProt D4GUW5 1-540, looked up)
chain: B2 chain
notes: AMP-forming acetyl-CoA synthetase ACS2 of Haloferax volcanii, gene acs2, locus tag HVO_0896; calculated subunit 59.8 kDa; gene amplified from genomic DNA; also called recombinant ACS2; HVO_0896; source: H. volcanii H1209 (plasmid pTA963, homologous overexpression), purified (Ni-NTA, size exclusion chromatography)
stoichiometry N [7]: 2

B4: AMP-forming acetyl-CoA synthetase ACS2 purified from acetate-grown Haloferax volcanii cells (enzyme, UniProt D4GUW5 1-540, looked up)
chain: B2 chain
notes: AMP-forming acetyl-CoA synthetase ACS2 of Haloferax volcanii, gene acs2, locus tag HVO_0896; identified by MALDI-TOF MS of the 69 kDa subunit; Native enzyme, no tag; also called HVO_0896
stoichiometry N [8]: 2

B5: AMP-forming acetyl-CoA synthetase ACS9 from Haloferax volcanii, recombinant (enzyme, UniProt D4GRL3 1-538, looked up)
chain: MKKQLLVTDFLDRARTYYGDYEAVVGVDGERFTYAEFGERVDRFSAALQSRGVEKGDRVAVLDPNTHYHLEAAFGAMQCGALHVPLNYRLTTDDYEYLLSDSGATVVYADYQYAGKIEAVRDDVPAEVFVTNDPAAVDGDWLDFEAFLDEADADDYERPEMSEDELITINYTSGTTGDPKGVCRTHRTESLHAQLVTIHHHIGDDDVYLWTLPMFHVNGWGHIYAVTGRGAKHVCTRGVEAEAVFDAITEEDVSFFCCAPTVLSILREYAEEHDPAYAGDNPVRVTAAGSAAPSATIRHTESEFGWEFTQLYGATETGPLIATSDANRLIPDEGGLRFSLKQRQGVAPLGTDLRVVDDDGEQVPRGDATIGEVVVRGNQVMEKYWNKPDETHDAFNDRLEGWYHTGDLAVVNEDGMIAIQDRKKDIIISGGENISSVELEDALFDHDAVGDVAVIPAPSEKWGETPKAFVVPANGDVENPGVTAEELTAYTRDRLAGYKAIREFEFVAEIPKTATGKIQKYELRKREWDDEERMVGQG
notes: 59 kDa subunits; gene amplified from genomic DNA; source: H. volcanii H1209 (plasmid pTA963, homologous overexpression), purified (Ni-NTA, Superdex 200)
stoichiometry N [8]: 2

B6: Mae1 (Haloferax volcanii DS2) (protein)
chain: MGLDDDSRKYHRQDPPGKIEIATTKPTNTQRDLSLAYSPGVAAPCLDIAEDEDAAYEYTAKGNLVGVVSNGSAVLGLGDIGAQASKPVMEGKGVLFKRFADIDVFDVELDIADVDDFVAATKAMEPTFGGINLEDIKAPECFEIERQLREQMDIPVFHDDQHGTAIISGAALLNAADIVDKDLDELDIVFSGAGASALATARFYVSLGAKKENITMCDSSGIITESRVEDGDVNKYKAEFAKPVDEGSLSDAMEGADVLAGLSVGGIVSQEMVRSMADNPVIFAMANPDPEITYEDAKDARDDTVIMATGRSDYPNQVNNVLGFPFIFRGALDVRATEINEAMKRAAAEALAELARQDVPDAVVKAYGDHPLQFGADYVIPKPLDPRVLFEVAPAVAQAAMTSGAARERLDMNAYREELEARLGKSREMMRVVLNKAKSNPKRVALAEGEDEKMIRAAYQMQEEGIAEPILVGETTTILRKAEELGLDFDPTIANPRDGEWDHYVDRLYELRQRKGVTNSEAEELVRRDSNYFASVMVEVGDADAMLTGLTHHYPSALRPPLQIIGTADDADYAAGVYMMTFKNRVVFCADTTVNLDPDEEVLAEITKHTADLARQFNVEPRAALLSYSNFGSVTNEGTRKPRDAAALLQDDPEVDFPVDGEMQADTALVEDILEGTYDFAELDGPANVLVFPNLEAGNIGYKLLQRLGGAEAIGPMLVGMDKPVHVLQRGDEVKDIVNLAATAVVDAQEE
notes: full length with C-terminal PTA domain, Ni-NTA purified, homologous expression in H. volcanii
Km (purified protein [9]): 650 µM
Km (purified protein [10]): 100 µM
Km (purified protein [3]; L-malate, MnCl2, 4 M KCl, pH 5.75, 42°C): 60 µM

B7: AMP-forming acetyl-CoA synthetase ACS1 from Haloferax volcanii, recombinant (enzyme, UniProt D4GUW1 1-662, looked up)
chain: MADGDTELEARLVEQEEFEPSEEFVAQANVSDPAVYDEFEENWPDCWERAAEMLDWDEKYDEVLDDSNPPFYEWFTGGKLNVSYNCVDRHVENGDKNRVAIKWEGEHGETRTYTYQDLYREVNEFAAALRDLGVEEDDVVTLYMPMIPELPIAMLACARIGAPHSVVFGGFSAEALATRMNAADSRFLVTCDGYYRRGDPLDHLDKANEGLDGVDHGVDATVVVDRLGDDGFDHDLKGNQHDWDDLLDEHAGERIDPVERDAEDMLFLMYTSGTTGQPKGVKHTTGGYLAYAAWTSHAVLDIEKEDTYWCSADIGWITGHSYIVYGPLALGTTTVMYEGTPDFPNRDRLWDIIEKYAVDIFYTAPTAIRAFMKWGSRFPEQHDLSSLRLLGTVGEPINPRAWKWYYKHIGNEDCPVVDTWWQTETGGMMITTLPGIKKMKPGSAGPPLPGIDAQIVDTSGKQVDAGRAGYLTVNKPWPGMLRTLYKNDERFIQEYWQEYSDTDSDDPDDWVYFPEDGAKIDGDDYITILGRVDDVINVSGHRLGTMEIESAIVGVEGVAEAAVVGGNHEVKGEAVYAYVITEEGQDEDDEMRGRIIEGVEDAIGPIARPEMVVFTPELPKTRSGKIMRRLLEEIANGEELGDTTTLRNPEVVESIQRQVESE
notes: AMP-forming acetyl-CoA synthetase ACS1 of Haloferax volcanii, gene acs1, locus tag HVO_0894; calculated subunit 71.2 kDa; gene amplified from genomic DNA; also called HVO_0894; source: H. volcanii H1209 (plasmid pTA963, homologous overexpression), purified (Ni-NTA, Superdex 200)
Km (purified protein [4]; [14]): 90 µM
Vmax (purified protein [4]; [14]): 0.4 µmol/min/mg
Km (purified protein [11]): 570 µM
Vmax (purified protein [11]): 0.25 µmol/min/mg
Km (purified protein [5]; MgCl2, 1 M KCl, pH 7.0, 42°C): 730 µM
Km (purified protein [6]; MgCl2, 1 M KCl, pH 7.0, 42°C): 480 µM
stoichiometry N [7]: 2
